According to paper PMC3711432, “The Fanconi anemia associated protein FAAP24 uses two substrate specific binding surfaces for DNA recognition”:

Legend:
[1] = target: FAAP24 HhH V162A V162A (UniProt Q9BTP7); assay: EMSA; settings: EMSA: 10 mM Tris pH 7.0, 10 mM NaCl (high salt: 50 mM NaHPO4, 400 mM NaCl), 5% glycerol, 1 mM DTT, 20 ug/ml BSA, on ice, gel at 4 C; NMR: 50 mM NaHPO4 pH 6.5 …
[2] = target: T1, FAAP24 HhH domain (UniProt Q9BTP7 139-215); assay: EMSA; 10 mM NaCl; apparent Kd; EMSA: 10 mM Tris pH 7.0, 10 mM NaCl (high salt: 50 mM NaHPO4, 400 mM NaCl), 5% glycerol, 1 mM DTT, 20 ug/ml BSA, on ice, gel at 4 C; NMR: 50 mM NaHPO4 pH 6.5, 100 mM NaCl, 8% D2O, 298 K; settings: protein: recombinant, tags: N-terminal His, label: radiolabeled
T1 sequence: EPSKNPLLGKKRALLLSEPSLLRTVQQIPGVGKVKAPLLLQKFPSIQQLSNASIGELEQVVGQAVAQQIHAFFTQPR

[3] = target: T1, FAAP24 HhH domain; assay: NMR; 100 mM NaCl; CSPs in N-terminal linker; EMSA: 10 mM Tris pH 7.0, 10 mM NaCl (high salt: 50 mM NaHPO4, 400 mM NaCl), 5% glycerol, 1 mM DTT, 20 ug/ml BSA, on ice, gel at 4 C; NMR: 50 mM NaHPO4 pH 6.5, 100 mM NaCl, 8% D2O, 298 K; settings: protein: recombinant; tags: N-terminal His; single strand
[4] = target: T2, FAAP24 HhH R161A (UniProt Q9BTP7 139-215, R161A); assay: EMSA; EMSA: 10 mM Tris pH 7.0, 10 mM NaCl (high salt: 50 mM NaHPO4, 400 mM NaCl), 5% glycerol, 1 mM DTT, 20 ug/ml BSA, on ice, gel at 4 C; NMR: 50 mM NaHPO4 pH 6.5, 100 mM NaCl, 8% D2O, 298 K; settings: protein: recombinant, tags: N-terminal His, (radiolabeled) in EMSA, bubble: 10 bp stem, 10 unpaired nt
T2 sequence: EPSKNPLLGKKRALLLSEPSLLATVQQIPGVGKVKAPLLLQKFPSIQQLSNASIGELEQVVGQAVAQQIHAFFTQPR

[5] = target: T3, FAAP24 HhH K171A/K173A (UniProt Q9BTP7 139-215, K171A;K173A); assay: as above; settings: protein: recombinant, tags: N-terminal His, (radiolabeled) in EMSA, bubble: 10 bp stem, 10 unpaired nt
T3 sequence: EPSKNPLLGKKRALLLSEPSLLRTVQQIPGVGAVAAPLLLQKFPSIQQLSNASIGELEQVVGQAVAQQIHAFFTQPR

[6] = target: T4, FAAP24 HhH K173A (UniProt Q9BTP7 139-215, K173A); assay: as above; settings: protein: recombinant, tags: N-terminal His, (radiolabeled) in EMSA, bubble: 10 bp stem, 10 unpaired nt
T4 sequence: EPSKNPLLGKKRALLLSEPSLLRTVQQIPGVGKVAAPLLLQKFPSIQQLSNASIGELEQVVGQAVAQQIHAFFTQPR

[7] = target: T5, FAAP24 HhH Q205A/Q206A (UniProt Q9BTP7 139-215, Q205A;Q206A); assay: EMSA; no significant effect on affinity vs wt; EMSA: 10 mM Tris pH 7.0, 10 mM NaCl (high salt: 50 mM NaHPO4, 400 mM NaCl), 5% glycerol, 1 mM DTT, 20 ug/ml BSA, on ice, gel at 4 C; NMR: 50 mM NaHPO4 pH 6.5, 100 mM NaCl, 8% D2O, 298 K; settings: protein: recombinant, tags: N-terminal His, (radiolabeled) in EMSA, bubble: 10 bp stem, 10 unpaired nt
T5 sequence: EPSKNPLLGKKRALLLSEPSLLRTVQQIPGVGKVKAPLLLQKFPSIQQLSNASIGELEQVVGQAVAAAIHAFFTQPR

[8] = target: T1, FAAP24 HhH domain; assay: EMSA; 10 mM NaCl; apparent Kd, multiple complexes; EMSA: 10 mM Tris pH 7.0, 10 mM NaCl (high salt: 50 mM NaHPO4, 400 mM NaCl), 5% glycerol, 1 mM DTT, 20 ug/ml BSA, on ice, gel at 4 C; NMR: 50 mM NaHPO4 pH 6.5, 100 mM NaCl, 8% D2O, 298 K; settings: protein: recombinant, tags: N-terminal His, (radiolabeled) in EMSA, bubble: 10 bp stem, 10 unpaired nt
[9] = target: T1, FAAP24 HhH domain; assay: NMR; 100 mM NaCl; CSPs in hairpin 1; EMSA: 10 mM Tris pH 7.0, 10 mM NaCl (high salt: 50 mM NaHPO4, 400 mM NaCl), 5% glycerol, 1 mM DTT, 20 ug/ml BSA, on ice, gel at 4 C; NMR: 50 mM NaHPO4 pH 6.5, 100 mM NaCl, 8% D2O, 298 K; settings: protein: recombinant; tags: N-terminal His; blunt
[10] = target: T6, FAAP24 full length (UniProt Q9BTP7 1-215); assay: NMR; CSPs in hairpin 1, C-terminus and ERCC4-like domain; EMSA: 10 mM Tris pH 7.0, 10 mM NaCl (high salt: 50 mM NaHPO4, 400 mM NaCl), 5% glycerol, 1 mM DTT, 20 ug/ml BSA, on ice, gel at 4 C; NMR: 50 mM NaHPO4 pH 6.5, 100 mM NaCl, 8% D2O, 298 K; settings: protein: recombinant; tags: N-terminal His; blunt
T6 sequence: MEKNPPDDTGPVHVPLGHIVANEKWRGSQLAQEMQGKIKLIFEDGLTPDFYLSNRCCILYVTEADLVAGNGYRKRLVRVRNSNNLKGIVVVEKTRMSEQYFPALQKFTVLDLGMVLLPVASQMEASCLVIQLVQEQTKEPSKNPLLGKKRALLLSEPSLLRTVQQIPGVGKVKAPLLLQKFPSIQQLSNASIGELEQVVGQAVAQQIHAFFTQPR

[11] = target: T1, FAAP24 HhH domain; assay: NMR; 100 mM NaCl; CSPs comparable with splayed arm; EMSA: 10 mM Tris pH 7.0, 10 mM NaCl (high salt: 50 mM NaHPO4, 400 mM NaCl), 5% glycerol, 1 mM DTT, 20 ug/ml BSA, on ice, gel at 4 C; NMR: 50 mM NaHPO4 pH 6.5, 100 mM NaCl, 8% D2O, 298 K; settings: protein: recombinant; tags: N-terminal His; 5' overhang 20 nt
[12] = target: T1, FAAP24 HhH domain; assay: NMR; 100 mM NaCl; EMSA: 10 mM Tris pH 7.0, 10 mM NaCl (high salt: 50 mM NaHPO4, 400 mM NaCl), 5% glycerol, 1 mM DTT, 20 ug/ml BSA, on ice, gel at 4 C; NMR: 50 mM NaHPO4 pH 6.5, 100 mM NaCl, 8% D2O, 298 K; settings: protein: recombinant; tags: N-terminal His; fork: 10 bp, two 20 nt arms

GGGCGGCGGGTTTTTTTTTTGGCGGGGCGG / CCGCCCCGCCTTTTTTTTTTCCCGCCGCCC [B10 bubble]
binding signal (fold decrease in affinity vs wt) [1]: 2

TGCGAATTCATATGCAATATTCAGTGGCTGAGCTACTGG (ssDNA) [ss39]
Kd ([2]; single strand): 7.8 ± 0.4 µM

B1: ds30 (dsDNA)
DNA 1: GGGCGGCGGGTTTTTTTTTTGGCGGGGCGG
DNA 2: CCGCCCCGCCAAAAAAAAAACCCGCCGCCC
Kd ([2]; blunt): 9.1 ± 0.9 µM

TTTTTTTTTTTTTTTTTTTT (ssDNA) [ss20 (dT20)]
binding result [3]: binds

B2: B10 bubble (mixed)
DNA 1: GGGCGGCGGGTTTTTTTTTTGGCGGGGCGG
DNA 2: CCGCCCCGCCTTTTTTTTTTCCCGCCGCCC
binding signal [4]: 2 fold decrease in affinity vs wt
binding signal [5]: 4 fold decrease in affinity vs wt
binding signal [6]: 3 fold decrease in affinity vs wt
binding result [7]: binds
Kd [8]: 1.2 ± 0.2 µM

B3: ds10 (dsDNA)
DNA 1: GGGCGGCGGG
DNA 2: CCCGCCGCCC
binding result [9]: binds
binding result [10]: binds

B4: 5' extension (mixed)
DNA: GATTCTAAAGTTAGATAGGCCCCGCCGCCC
?: GGGCGGCGGG
binding result [11]: binds

B5: splayed arm with 20 nt arms (mixed)
DNA 1: GGGCGGCGGGCGGATAGATTGAAATCTTAG
DNA 2: GATTCTAAAGTTAGATAGGCCCCGCCGCCC
binding result [12]: binds
